In patent US20030228654A1, “Method for producing antimicrobial protein and fusion protein” (KABUSHIKI KAISHA TOYOTA CHUO KENKYUSHO, priority 2000, published 2003):

System: Ceratocystis fimbriata
Experiment: Assay of antimicrobial activity: growth inhibition of Ceratocystis fimbriata spore suspension in 96-well microplate, absorbance at 415 nm
Format: cell-based
Settings: Factor Xa-cleaved, concentrated protein solution 30 μl per well; MES buffer pH 6; 26° C.; absorbance 415 nm, 48 hours vs 30 minutes
Method: As shown in SEQ ID No: 1, 2 or 4, the fusion proteins of Examples 1 and 2 and Comparative Example 2 thus dialyzed retained the recognition sequence of a protease Factor Xa in between thionin and the partner protein. Then, the fusion protein was subjected to cleavage with Factor Xa of 30 μg per 1 mg of each fusion protein described above at 30° C. overnight.
The protein solution recovered by the cleavage procedures was concentrated to 30 μl using Microcon-3 (MWCO: 3000) as a concentration unit with a filtration membrane. Such great number of concentrated sample solutions were divided at 30 μl each in the individual wells of a 96-well microplate, followed by addition of 10 μl of 200 mM MES [2-(N-morpholino)ethanesulfonic acid] buffer at pH 6 and 60 μL of a spore suspension of Ceratocystis fimbriata (100,000 spores per 1 ml-80% potato dextrose broth). Then, the resulting mixtures were cultured at 26° C. […]
Then, the absorbance 30 minutes and 48 hours later was measured at 415 nm with a microplate reader of Model 3550. The growth inhibition was determined by the following formula (1). Herein, A represents the value obtained by subtracting the absorbance measured 30 minutes later from that measured 48 hours later in each concentrated sample solution, and B represents the same value in a solution not containing the sample. […]

B1: Example 2: Fusion protein of barley thionin and PDI from Fumicola insolens (SEQ ID No: 2); refolded, cleaved with Factor Xa (protein)
chain: EKHMIEGRMKSCCRSTLGRNCYNLCRVRGAQKLCAGVCRCKLTSSGKCPTGFPKMIEGRTLALVSNSDEPDTVKYCNLGCRASMCDYMVNAAADDEEMKLYLENCGDACVNFCNGDAGLTSLTA
modifications: Hordeum vulgare
Growth inhibition (%): 99.1%
